Values of other authors in patent US6368617B1, “Dietary supplement” (Reliv' International, Inc., priority 2001, dated 2002).
Read-outs that look alike come from different tables or passages of the source.

In the case of “IGF-1: growth-promoting metabolite of hGH, somatomedin C, commercially known as Insulin-like Growth Factor type 1”, the half-life (serum) is given as “about 20 hours”.

In the case of “Growth Hormone: endocrine hormone produced by the pituitary, also known as somatotropin”, the half-life (circulating) is listed as “about 20 minutes”.
